Test results reported in article PMC9352680, “A comprehensive thermodynamic model for RNA binding by the Saccharomyces cerevisiae Pumilio protein PUF4”.

T1: PUF4 RNA-binding domain (Saccharomyces cerevisiae, UniProt P25339 537-888)
T1 sequence: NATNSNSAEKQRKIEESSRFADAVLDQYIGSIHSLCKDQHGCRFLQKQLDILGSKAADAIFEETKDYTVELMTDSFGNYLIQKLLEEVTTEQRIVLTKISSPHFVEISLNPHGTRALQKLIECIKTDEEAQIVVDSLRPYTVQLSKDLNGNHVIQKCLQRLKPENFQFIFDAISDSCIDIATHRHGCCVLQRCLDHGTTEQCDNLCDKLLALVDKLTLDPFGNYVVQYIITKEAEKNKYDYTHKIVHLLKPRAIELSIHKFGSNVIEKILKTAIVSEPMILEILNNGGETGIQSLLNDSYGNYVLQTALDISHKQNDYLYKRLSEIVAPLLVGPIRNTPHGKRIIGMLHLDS


Molecular target: T1, PUF4 RNA-binding domain
Assay: Mg; RNA-MaP; 20 mM Na-HEPES pH 7.4, 30 mM KOAc, 0.75 mM MgCl2, 0.1% Tween-20, 5% glycerol, 0.1 mg/mL BSA, 2 mM DTT; 25 C; 0.0125-409.6 nM protein
Conditions: tags: N-His6-TEV cleaved; C-SNAP kept, Cy3B-labelled; label: tethered on chip by stalled RNA polymerase

| Binder | Kd |
| --- | --- |
| ACAAACUGACACUUAUUACCACAAAC (ssRNA) [Id_ii_S3_P5E.4_K5.3_C5.2_[C-2T]_[T-1G]_H5.3_A5.1_F5.1_T5.2_[T11C]_[A12C]] | > 2.3 µM |
| ACAAACAGACACUUAUUAUCACAAAC (ssRNA) [Id_ii_S3_P5E.4_K5.3_C5.2_[C-2A]_[T-1G]_H5.3_A5.1_F5.1_T5.2_[A12C]] | > 2.3 µM |
| ACAAACAAACACUUAUUACAACAAAC (ssRNA) [Id_ii_S3_P5E.4_K5.3_C5.2_[C-2A]_[T-1A]_H5.3_A5.1_F5.1_T5.2_[T11C]] | > 2.3 µM |
| ACAAACUCACACUUAUUAGCACAAAC (ssRNA) [Id_ii_S3_P5E.4_K5.3_C5.2_[C-2T]_[T-1C]_H5.3_A5.1_F5.1_T5.2_[T11G]_[A12C]] | > 2.3 µM |
| ACAAACCGACACUUAUUACGACAAAC (ssRNA) [Id_ii_S3_P5E.4_K5.3_C5.2_[T-1G]_H5.3_A5.1_F5.1_T5.2_[T11C]_[A12G]] | > 2.3 µM |
| ACAAACAAACACUUAUUAAGACAAAC (ssRNA) [Id_ii_S3_P5E.4_K5.3_C5.2_[C-2A]_[T-1A]_H5.3_A5.1_F5.1_T5.2_[T11A]_[A12G]] | > 2.3 µM |
| ACAAACUAACACUUAUUACAACAAAC (ssRNA) [Id_ii_S3_P5E.4_K5.3_C5.2_[C-2T]_[T-1A]_H5.3_A5.1_F5.1_T5.2_[T11C]] | > 2.3 µM |
| ACAAACUCACACUUAUUACAACAAAC (ssRNA) [Id_ii_S3_P5E.4_K5.3_C5.2_[C-2T]_[T-1C]_H5.3_A5.1_F5.1_T5.2_[T11C]] | > 2.3 µM |
| ACAAACAUACACUUAUUACGACAAAC (ssRNA) [Id_ii_S3_P5E.4_K5.3_C5.2_[C-2A]_H5.3_A5.1_F5.1_T5.2_[T11C]_[A12G]] | > 2.3 µM |
| ACAAACCGACACUUAUUACCACAAAC (ssRNA) [Id_ii_S3_P5E.4_K5.3_C5.2_[T-1G]_H5.3_A5.1_F5.1_T5.2_[T11C]_[A12C]] | > 2.3 µM |
| ACAAACGAACACUUAUUAUCACAAAC (ssRNA) [Id_ii_S3_P5E.4_K5.3_C5.2_[C-2G]_[T-1A]_H5.3_A5.1_F5.1_T5.2_[A12C]] | > 2.3 µM |
| ACAAACACACACUUAUUAUCACAAAC (ssRNA) [Id_ii_S3_P5E.4_K5.3_C5.2_[C-2A]_[T-1C]_H5.3_A5.1_F5.1_T5.2_[A12C]] | > 2.3 µM |
| ACAAACAAACACUUAUUAAAACAAAC (ssRNA) [Id_ii_S3_P5E.4_K5.3_C5.2_[C-2A]_[T-1A]_H5.3_A5.1_F5.1_T5.2_[T11A]] | > 2.3 µM |
| ACAAACGAACACUUAUUAACACAAAC (ssRNA) [Id_ii_S3_P5E.4_K5.3_C5.2_[C-2G]_[T-1A]_H5.3_A5.1_F5.1_T5.2_[T11A]_[A12C]] | > 2.3 µM |
| ACAAACAGACACUUAUUAGAACAAAC (ssRNA) [Id_ii_S3_P5E.4_K5.3_C5.2_[C-2A]_[T-1G]_H5.3_A5.1_F5.1_T5.2_[T11G]] | > 2.3 µM |
| ACAAACAGACACUUAUUACAACAAAC (ssRNA) [Id_ii_S3_P5E.4_K5.3_C5.2_[C-2A]_[T-1G]_H5.3_A5.1_F5.1_T5.2_[T11C]] | > 2.3 µM |
| ACAAACUUACACUUAUUAUCACAAAC (ssRNA) [Id_ii_S3_P5E.4_K5.3_C5.2_[C-2T]_H5.3_A5.1_F5.1_T5.2_[A12C]] | > 2.3 µM |
| ACAAACAAACACUUAUUAUGACAAAC (ssRNA) [Id_ii_S3_P5E.4_K5.3_C5.2_[C-2A]_[T-1A]_H5.3_A5.1_F5.1_T5.2_[A12G]] | > 2.3 µM |
| ACAAACAAACACUUAUUACCACAAAC (ssRNA) [Id_ii_S3_P5E.4_K5.3_C5.2_[C-2A]_[T-1A]_H5.3_A5.1_F5.1_T5.2_[T11C]_[A12C]] | > 2.3 µM |
| ACAAACAAACACUUAUUAGGACAAAC (ssRNA) [Id_ii_S3_P5E.4_K5.3_C5.2_[C-2A]_[T-1A]_H5.3_A5.1_F5.1_T5.2_[T11G]_[A12G]] | > 2.3 µM |
| UCUCUUUAUGUUAUUAUCUCUU (ssRNA) [Ib_S1_P5E.1_K5.1_C5.1_H5.1_[G2A]_[A4G]_A5.1_F5.1_T5.1] | 2.07 µM |
| ACAAACAUACACUUAUUAGGACAAAC (ssRNA) [Id_ii_S3_P5E.4_K5.3_C5.2_[C-2A]_H5.3_A5.1_F5.1_T5.2_[T11G]_[A12G]] | > 2.3 µM |
| UCUCUUUAUCUUAUUAUCUCUU (ssRNA) [Ib_S1_P5E.1_K5.1_C5.1_H5.1_[G2A]_[A4C]_A5.1_F5.1_T5.1] | > 2.3 µM |
| ACAAACUGACACUUAUUAUAACAAAC (ssRNA) [Id_ii_S3_P5E.4_K5.3_C5.2_[C-2T]_[T-1G]_H5.3_A5.1_F5.1_T5.2] | > 2.3 µM |

| Binder | Kd |
| --- | --- |
| ACAAACAAACACUUAUUAUAACAAAC (ssRNA) [Id_ii_S3_P5E.4_K5.3_C5.2_[C-2A]_[T-1A]_H5.3_A5.1_F5.1_T5.2] | > 2.3 µM |
| ACAAACACACACUUAUUACUACAAAC (ssRNA) [Id_ii_S3_P5E.4_K5.3_C5.2_[C-2A]_[T-1C]_H5.3_A5.1_F5.1_T5.2_[T11C]_[A12T]] | > 2.3 µM |
| ACAAACGUACACUUAUUAUCACAAAC (ssRNA) [Id_ii_S3_P5E.4_K5.3_C5.2_[C-2G]_H5.3_A5.1_F5.1_T5.2_[A12C]] | 1.19 µM |
| ACAAACUCACACUUAUUAAAACAAAC (ssRNA) [Id_ii_S3_P5E.4_K5.3_C5.2_[C-2T]_[T-1C]_H5.3_A5.1_F5.1_T5.2_[T11A]] | > 2.3 µM |
| ACAAACAAACACUUAUUAUCACAAAC (ssRNA) [Id_ii_S3_P5E.4_K5.3_C5.2_[C-2A]_[T-1A]_H5.3_A5.1_F5.1_T5.2_[A12C]] | > 2.3 µM |
| ACAAACGUACACUUAUUACCACAAAC (ssRNA) [Id_ii_S3_P5E.4_K5.3_C5.2_[C-2G]_H5.3_A5.1_F5.1_T5.2_[T11C]_[A12C]] | 0.972 µM |
| ACAAACUCACACUUAUUACGACAAAC (ssRNA) [Id_ii_S3_P5E.4_K5.3_C5.2_[C-2T]_[T-1C]_H5.3_A5.1_F5.1_T5.2_[T11C]_[A12G]] | > 2.3 µM |
| ACAAACCGACACUUAUUAUAACAAAC (ssRNA) [Id_ii_S3_P5E.4_K5.3_C5.2_[T-1G]_H5.3_A5.1_F5.1_T5.2] | > 2.3 µM |
| ACAAACUUACACUUAUUACGACAAAC (ssRNA) [Id_ii_S3_P5E.4_K5.3_C5.2_[C-2T]_H5.3_A5.1_F5.1_T5.2_[T11C]_[A12G]] | > 2.3 µM |
| ACAAACUGACACUUAUUACGACAAAC (ssRNA) [Id_ii_S3_P5E.4_K5.3_C5.2_[C-2T]_[T-1G]_H5.3_A5.1_F5.1_T5.2_[T11C]_[A12G]] | > 2.3 µM |
| ACAAACAGACACUUAUUACCACAAAC (ssRNA) [Id_ii_S3_P5E.4_K5.3_C5.2_[C-2A]_[T-1G]_H5.3_A5.1_F5.1_T5.2_[T11C]_[A12C]] | > 2.3 µM |
| UCUCUUUCUUUUAUUAUCUCUU (ssRNA) [Ib_S1_P5E.1_K5.1_C5.1_H5.1_[G2C]_[A4T]_A5.1_F5.1_T5.1] | > 2.3 µM |
| ACAAACAUACACUUAUUAAUACAAAC (ssRNA) [Id_ii_S3_P5E.4_K5.3_C5.2_[C-2A]_H5.3_A5.1_F5.1_T5.2_[T11A]_[A12T]] | > 2.3 µM |
| ACAAACUGACACUUAUUAAGACAAAC (ssRNA) [Id_ii_S3_P5E.4_K5.3_C5.2_[C-2T]_[T-1G]_H5.3_A5.1_F5.1_T5.2_[T11A]_[A12G]] | > 2.3 µM |
| ACAAACGUACACUUAUUAUUACAAAC (ssRNA) [Id_ii_S3_P5E.4_K5.3_C5.2_[C-2G]_H5.3_A5.1_F5.1_T5.2_[A12T]] | 0.703 µM |
| ACAAACUUACACUUAUUAACACAAAC (ssRNA) [Id_ii_S3_P5E.4_K5.3_C5.2_[C-2T]_H5.3_A5.1_F5.1_T5.2_[T11A]_[A12C]] | > 2.3 µM |
| ACAAACUCACACUUAUUAAUACAAAC (ssRNA) [Id_ii_S3_P5E.4_K5.3_C5.2_[C-2T]_[T-1C]_H5.3_A5.1_F5.1_T5.2_[T11A]_[A12T]] | > 2.3 µM |
| UCUCUUUCUCUUAUUAUCUCUU (ssRNA) [Ib_S1_P5E.1_K5.1_C5.1_H5.1_[G2C]_[A4C]_A5.1_F5.1_T5.1] | > 2.3 µM |
| ACAAACAGACACUUAUUAUUACAAAC (ssRNA) [Id_ii_S3_P5E.4_K5.3_C5.2_[C-2A]_[T-1G]_H5.3_A5.1_F5.1_T5.2_[A12T]] | > 2.3 µM |
| ACAAACGUACACUUAUUAAUACAAAC (ssRNA) [Id_ii_S3_P5E.4_K5.3_C5.2_[C-2G]_H5.3_A5.1_F5.1_T5.2_[T11A]_[A12T]] | 0.707 µM |
| ACAAACACACACUUAUUAACACAAAC (ssRNA) [Id_ii_S3_P5E.4_K5.3_C5.2_[C-2A]_[T-1C]_H5.3_A5.1_F5.1_T5.2_[T11A]_[A12C]] | > 2.3 µM |
| ACAAACCGACACUUAUUACUACAAAC (ssRNA) [Id_ii_S3_P5E.4_K5.3_C5.2_[T-1G]_H5.3_A5.1_F5.1_T5.2_[T11C]_[A12T]] | > 2.3 µM |
| ACAAACUCACACUUAUUAUGACAAAC (ssRNA) [Id_ii_S3_P5E.4_K5.3_C5.2_[C-2T]_[T-1C]_H5.3_A5.1_F5.1_T5.2_[A12G]] | > 2.3 µM |
| UCUCUUUCUGUUAUUAUCUCUU (ssRNA) [Ib_S1_P5E.1_K5.1_C5.1_H5.1_[G2C]_[A4G]_A5.1_F5.1_T5.1] | > 2.3 µM |
